# Reference: publication PMC3747585
# Legend:
# [1] = biological target: CspA (full-length CspA^26–251) from Borrelia burgdorferi (Borrelia burgdorferi); test: ELISA
# [2] = biological target: NT-647-labeled human C7 (human) (UniProt P10643); test: MST
# [3] = biological target: NT-647-labeled human C9 (human) (UniProt P02748); test: MST
# Sequence of factor H (P08603 19-1231): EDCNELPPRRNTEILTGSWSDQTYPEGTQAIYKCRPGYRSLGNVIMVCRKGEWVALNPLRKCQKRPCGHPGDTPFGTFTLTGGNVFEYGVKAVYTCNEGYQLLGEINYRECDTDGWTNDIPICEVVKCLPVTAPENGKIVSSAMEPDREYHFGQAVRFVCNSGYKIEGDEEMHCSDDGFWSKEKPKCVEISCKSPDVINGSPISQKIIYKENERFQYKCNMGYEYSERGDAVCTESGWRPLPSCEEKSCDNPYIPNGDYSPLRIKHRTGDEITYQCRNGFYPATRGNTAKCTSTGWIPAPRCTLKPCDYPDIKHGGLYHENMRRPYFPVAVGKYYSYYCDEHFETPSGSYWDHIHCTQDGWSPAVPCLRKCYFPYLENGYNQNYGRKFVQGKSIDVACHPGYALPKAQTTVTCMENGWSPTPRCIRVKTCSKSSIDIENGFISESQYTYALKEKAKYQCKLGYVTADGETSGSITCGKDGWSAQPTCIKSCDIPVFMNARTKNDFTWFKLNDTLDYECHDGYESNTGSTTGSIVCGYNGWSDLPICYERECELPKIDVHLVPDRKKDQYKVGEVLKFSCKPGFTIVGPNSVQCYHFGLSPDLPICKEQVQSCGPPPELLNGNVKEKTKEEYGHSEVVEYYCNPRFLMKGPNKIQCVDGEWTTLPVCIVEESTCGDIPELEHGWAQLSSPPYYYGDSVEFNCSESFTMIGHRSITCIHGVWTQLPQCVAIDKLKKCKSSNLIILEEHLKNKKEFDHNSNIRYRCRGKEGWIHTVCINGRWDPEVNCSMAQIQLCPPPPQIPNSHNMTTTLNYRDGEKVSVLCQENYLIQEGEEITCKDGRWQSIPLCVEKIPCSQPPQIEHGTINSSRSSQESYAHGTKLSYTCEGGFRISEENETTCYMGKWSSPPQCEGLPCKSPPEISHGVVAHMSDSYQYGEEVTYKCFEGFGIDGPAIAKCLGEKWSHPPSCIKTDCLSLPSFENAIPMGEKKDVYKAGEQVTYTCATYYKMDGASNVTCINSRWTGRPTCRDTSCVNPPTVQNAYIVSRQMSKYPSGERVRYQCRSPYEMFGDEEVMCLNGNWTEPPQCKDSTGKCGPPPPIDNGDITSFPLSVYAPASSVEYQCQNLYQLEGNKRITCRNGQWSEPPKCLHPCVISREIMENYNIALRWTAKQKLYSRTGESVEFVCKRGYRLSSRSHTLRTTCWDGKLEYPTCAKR
substance,measurement,setting,value
factor H (from UniProt P08603 19-1231) (natural protein),percent reduction of C7 binding to CspA by factor H at 5 µg/ml,[1],17%
same,percent reduction of C9 binding to CspA by factor H at 5 µg/ml,[1],23%
human terminal complement component C9 (from UniProt P02748 22-559) (natural protein),percent inhibition of binding by NaCl at 0.15 M,[1],35%
CspA (full-length CspA^26–251) from Borrelia burgdorferi (natural protein),Kd,[2],5.1 µM
same,Kd,[3],3.4 µM
human terminal complement component C7 (from UniProt P10643 23-843) (natural protein),percent reduction of binding by NaCl at 0.15 M,[1],60%
same,percent reduction of binding by heparin at 500 µg/ml,[1],42%
